Measurements published in article PMC3684052 (Molecular cell, 2013).
Substitutions are numbered along the chain they refer to. Numbers in names are those of the source. No end group written: not given here.

T1: His-ICAP1 (49–200), wild type (human, UniProt O14713 49-200)
T1 sequence (looked up): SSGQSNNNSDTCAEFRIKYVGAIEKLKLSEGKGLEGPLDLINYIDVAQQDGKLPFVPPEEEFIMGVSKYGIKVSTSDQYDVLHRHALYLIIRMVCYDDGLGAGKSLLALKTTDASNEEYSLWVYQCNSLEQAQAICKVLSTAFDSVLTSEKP

T2: His-ICAP1 (49–200) C184D (human, UniProt O14713 49-200, C184D)
T2 sequence (looked up): T1 sequence (looked up) with C136D

T3: His-ICAP1 (49–200) L135A/I138A/I139A (human, UniProt O14713 49-200, L135A | I138A | I139A)
T3 sequence (looked up): T1 sequence (looked up) with L87A, I90A, I91A

T4: His-ICAP1 (49–200) D93A/Q96A (human, UniProt O14713 49-200, D93A | Q96A)
T4 sequence (looked up): T1 sequence (looked up) with D45A, Q48A

T5: His-ICAP1 (49–200) I89R (human, UniProt O14713 49-200, I89R)
T5 sequence (looked up): T1 sequence (looked up) with I41R


Legend:
Assay in all cases: pull-down
[1] = molecular target: T1, His-ICAP1 (49–200), wild type
His-ICAP1 (49–200) C184D = molecular target: T2, His-ICAP1 (49–200) C184D
[2] = molecular target: T3, His-ICAP1 (49–200) L135A/I138A/I139A
[3] = molecular target: T4, His-ICAP1 (49–200) D93A/Q96A
His-ICAP1 (49–200) I89R = molecular target: T5, His-ICAP1 (49–200) I89R

Row | Binder | binding result [1] | binding result (His-ICAP1 (49–200) C184D) | binding result [2] | binding result [3] | binding result (His-ICAP1 (49–200) I89R)
1 | QSHFIPDLFRPSDLERIKTNVINPAYATE (domain or fragment, human, UniProt O00522 170-198, looked up) [GST-KRIT1 (residues 170–198) A176D/P182D] | binds |  |  |  | 
2 | QSHFIPALFRPSPLERIKTNVINPAYATE (domain or fragment, human, UniProt O00522 170-198, looked up) [GST-KRIT1 (residues 170–198), wild type] | binds | binds | binds | binds | binds
3 | QSHFIPALFRPSPLERIKTNVIAPAAATE (domain or fragment, human, UniProt O00522 170-198, looked up) [GST-KRIT1 (residues 170–198) N192A/Y195A] | binds |  |  |  | 

Now from value to binder:

Row | binding result [1] | binding result (His-ICAP1 (49–200) C184D) | binding result [2] | binding result [3] | binding result (His-ICAP1 (49–200) I89R) | Binder
4 | binds |  |  |  |  | QSHFIPALFAPSPLEAIKTNVINPAYATE (domain or fragment, human, UniProt O00522 170-198, looked up) [GST-KRIT1 (residues 170–198) R179A/R185A]
5 | binds |  |  | binds | binds | KLLMIIHDRREFAKFEKEKMNAKWDTGENPIYKSAVTTVVNPKYEGK (domain or fragment, UniProt P05556 752-798, looked up, also: GST fusion) [GST-integrin β1 fusion protein (residues 752 to 798), wild type]
